Reference: the supplement of paper PMC9732359
± gives the uncertainty stated by the source.

test: protein stability index of a GFP-peptide fusion (yeast GPS) (PSI 1-4); higher = more stable; sorted into four equal gates, so the index is relative within each strain; details: pdr5∆
How it was run: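 Peptides tiling yeast proteins in 17-residue segments were fused downstream of GFP, with Cherry expressed from the same plasmid. As a pooled library in yeast, mid-log cultures grown in leucine-free medium were sorted into four equal gates by GFP/Cherry fluorescence ratio. Gate plasmids were PCR-amplified and Illumina-sequenced, and barcodes linked reads to strains. Each peptide received a protein stability index equal to the sum of each gate's read frequency times its gate number.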

In the case of KISLLRPSFQNNRISNA [SWP82], the protein stability index is reported as 2.37 ± 0.046.

same assay, conditions: san1∆

In order of rising protein stability index:
1. KDHLLGRLASTIAKQVL [RPL16B]  1.25 ± 0.14
2. KFILQILQILNLMILNT [YML103C/NUP188]  1.42 ± 0.21
3. KENELLFGEKSILGKFC [YCS4]  1.59 ± 0.11
4. KHLEDNTLLISGPFKVN [RPL6A]  1.63 ± 0.13
5. KIRRHPNIMLIFGSGFG [FAS1]  1.68 ± 0.13
6. KHHQLFYMLNAGIRPKF [RPN1]  1.7 ± 0.082
7. KDPVDFVRQAAMIALSM [RPN2]  1.81 ± 0.17
8. KDRLYCGKCHSVYKVNA [RPS31]  1.89 ± 0.14
9. KHGAVHMSTYLKIYKVG [RPL21B]  1.9 ± 0.062
10. KGPIIISKNPSNGIFYG [SIR2]  1.92 ± 0.083
11. KELQQLQKQILTVENKL [SMC1]  1.98 ± 0.091
12. KGQGPFTLTYDIIETFS [YMR129W/POM152]  2.02 ± 0.057
13. KERIIRAFLIEEQKIVK [RPL34A]  2.04 ± 0.13
14. KFQLQNQLEDFILELEH [YIL149C/MLP2]  2.11 ± 0.11
15. KAELEKQKSWVPSYIHV [YIL149C/MLP2]  2.15 ± 0.077
16. KDFVTMAIEIINDIRDD [YCG1]  2.17 ± 0.2
17. KEELLRDGVLTVTLNKN [RRP45]  2.21 ± 0.084
18. KDGEDIIFNYVPGPGTK [CSL4]  2.23 ± 0.14
19. KISLLRPSFQNNRISNA [SWP82]  2.23 ± 0.078
20. KFPATNVTTILDEIFSG [ECM29]  2.28 ± 0.06
21. KHWQERVKVHFDQAGKK [RPL13A]  2.28 ± 0.064
22. KGALMYGPPGTGKTLLA [RPT5]  2.3 ± 0.18
23. KEYQCSAVIIDEFKDIT [YIL149C/MLP2]  2.35 ± 0.055
24. KALRRKIYINLALGSHN [SSN2]  2.4 ± 0.11
25. KILSILNRSHFATTKAE [ECM29]  2.4 ± 0.047
26. KDEYLAQLDGRIGVLQA [NSL1]  2.41 ± 0.074
27. KGKKYQPKDLRAKKTRA [RPL35A]  2.46 ± 0.13
28. KIKHGSVTEIPLKLSGE [YMR129W/POM152]  2.58 ± 0.072
29. KAPLQPNSERETDHANT [IRR1]  2.59 ± 0.068
30. IYATFLNESDCLEACSF [YDL116W/NUP84]  2.6 ± 0.13
31. KIIEDLRQKHEFLEDFD [SMC2]  2.6 ± 0.087
32. KDLKEILSGFHNAGPVA [RPP1B]  2.62 ± 0.066
33. KDAQKKDIEKLTNEISD [YIL149C/MLP2]  2.65 ± 0.061
34. KDIRSTLASLIRYNSVE [RPC82]  2.67 ± 0.12
35. KCLVEKSICFENCLNND [SWI1]  2.69 ± 0.064
36. KDLVKNNVSFNAKDIQI [FAS1]  2.69 ± 0.07
37. KFLKIASLKHDNETKAM [RPN3]  2.76 ± 0.1
38. KAISVGANTSAAQTLLQ [PRE9]  2.77 ± 0.053
39. KAVKLRKSYKNQIADLS [ROX3]  2.77 ± 0.095
40. KDIKANLSSNVNFTEIG [YCS4]  2.77 ± 0.05
41. KFFTQSNLEKLPKYKEK [MED7]  2.82 ± 0.053
42. KEVSSFLMGIFNSVVNL [MTR3]  2.88 ± 0.056
43. KASVTIVFDNTDKSNSP [SMC2]  2.9 ± 0.042
44. KELQYDNEQNLESDFVT [PRE2]  2.91 ± 0.075
45. KCLNYRNVNWIERLTKR [ITC1]  2.96 ± 0.05
46. KEAAAIAEGKSKQDASP [RPL8B]  2.99 ± 0.068
47. KEDADLKRMEILKSPHL [SIR4]  2.99 ± 0.053
48. KGYVFKISGGNDKQGFP [RPS6A]  2.99 ± 0.052
49. KFTIEPGVLPVGIDTHT [SNF2]  3 ± 0.14
50. KDENNTANDQYSSILGN [YCG1]  3.01 ± 0.032
51. KDSTAGKKVFETQYFWK [YJR042W/NUP85]  3.03 ± 0.21
52. KEVIELPVKHPELFESL [RPT6]  3.05 ± 0.054
53. KCQELVTNIRRIIQDNI [RRP46]  3.08 ± 0.25
54. KIEFPLPSEDSRAQILQ [RPT5]  3.11 ± 0.09
55. KFEPLYPREEEEDYNEF [PRP8]  3.12 ± 0.072
56. KCSATNRIIKADDHASV [RPS21A]  3.13 ± 0.049
57. KGRKTNKYANNDFANNL [CSL4]  3.13 ± 0.051
58. KAAFEDLKSKGLIPADA [FAS1]  3.14 ± 0.073
59. KEAAAVAEGKSKQDASP [RPL8A]  3.15 ± 0.044
60. KGRSYAYFMVGAMGLLS [RIP1]  3.16 ± 0.2
61. KAPTKLDDPEAVSKDPL [DIS3]  3.17 ± 0.058
62. KDAISFIKEIHKSIELI [YCS4]  3.17 ± 0.055
63. KDGGDKPPSSAFNFSFN [YAR002W/NUP60]  3.17 ± 0.052
64. KFKDMGIRAPKGALMYG [RPT5]  3.17 ± 0.21
65. KARSPGIAKPNAIQTEV [SIR4]  3.18 ± 0.075
66. KIKDNKEKIKNNRQLPY [RPT5]  3.18 ± 0.1
67. KEECQIEDDGIIESHLI [CSN9]  3.19 ± 0.084
68. KGKKGQKKRVVDPFTRK [RPS1A]  3.19 ± 0.15
69. KDFIENVNNRFDNFLTE [BRN1]  3.2 ± 0.068
70. KDLDGWQVIITDDQGRV [SIR3]  3.21 ± 0.068
71. KADAQREKALNEEAEAR [RPL19A]  3.23 ± 0.081
72. KIGDLGLARKFHNMLQT [SSN3]  3.23 ± 0.058
73. KELDALQEKEQLYFKKK [ISW2]  3.24 ± 0.25
74. KGETNSEISIIDATLKE [RRP45]  3.31 ± 0.072
75. KDGLKLVGSWKKDRATG [RPO21]  3.33 ± 0.15
76. KDIEKLTNEISDLKGKL [YIL149C/MLP2]  3.34 ± 0.067
77. KAKVDDLVLGKPLADLR [YLR335W/NUP2]  3.39 ± 0.072

same assay, conditions: ubr1∆

In order of falling protein stability index:
1. KELDALQEKEQLYFKKK [ISW2]  3.55 ± 0.11
2. KIEFPLPSEDSRAQILQ [RPT5]  3.51 ± 0.11
3. KALRRKIYINLALGSHN [SSN2]  3.48 ± 0.15
4. KGKKGQKKRVVDPFTRK [RPS1A]  3.47 ± 0.056
5. KFKDMGIRAPKGALMYG [RPT5]  3.4 ± 0.18
6. KFEPLYPREEEEDYNEF [PRP8]  3.37 ± 0.096
7. KIGDLGLARKFHNMLQT [SSN3]  3.37 ± 0.045
8. KAAFEDLKSKGLIPADA [FAS1]  3.35 ± 0.066
9. KAKVDDLVLGKPLADLR [YLR335W/NUP2]  3.35 ± 0.09
10. KDLDGWQVIITDDQGRV [SIR3]  3.35 ± 0.064
11. KFQGVLESEAQKKATMS [RPC34]  3.34 ± 0.11
12. KADAQREKALNEEAEAR [RPL19A]  3.33 ± 0.098
13. KDGGDKPPSSAFNFSFN [YAR002W/NUP60]  3.29 ± 0.061
14. KAPTKLDDPEAVSKDPL [DIS3]  3.26 ± 0.068
15. KARSPGIAKPNAIQTEV [SIR4]  3.22 ± 0.066
16. KGETNSEISIIDATLKE [RRP45]  3.19 ± 0.059
17. KDIEKLTNEISDLKGKL [YIL149C/MLP2]  3.17 ± 0.057
18. KFLKIASLKHDNETKAM [RPN3]  3.17 ± 0.12
19. KASVTIVFDNTDKSNSP [SMC2]  3.156 ± 0.028
20. KGRKTNKYANNDFANNL [CSL4]  3.15 ± 0.095
21. KCSATNRIIKADDHASV [RPS21A]  3.11 ± 0.039
22. KGPLLIERIGHLLSINY [PCI8]  3.11 ± 0.15
23. KCLNYRNVNWIERLTKR [ITC1]  3.09 ± 0.038
24. KEVIELPVKHPELFESL [RPT6]  3.09 ± 0.055
25. KDENNTANDQYSSILGN [YCG1]  3.08 ± 0.034
26. KEDADLKRMEILKSPHL [SIR4]  3.08 ± 0.057
27. KEAAAIAEGKSKQDASP [RPL8B]  3.06 ± 0.062
28. KEAAAVAEGKSKQDASP [RPL8A]  3.04 ± 0.054
29. KEECQIEDDGIIESHLI [CSN9]  3.02 ± 0.23
30. KELQYDNEQNLESDFVT [PRE2]  3.02 ± 0.055
31. KEVSSFLMGIFNSVVNL [MTR3]  3 ± 0.043
32. KGYVFKISGGNDKQGFP [RPS6A]  3 ± 0.054
33. KDEYLAQLDGRIGVLQA [NSL1]  2.99 ± 0.046
34. KGRSYAYFMVGAMGLLS [RIP1]  2.98 ± 0.074
35. KIKHGSVTEIPLKLSGE [YMR129W/POM152]  2.97 ± 0.086
36. KAVKLRKSYKNQIADLS [ROX3]  2.95 ± 0.037
37. KIIEDLRQKHEFLEDFD [SMC2]  2.94 ± 0.17
38. KAISVGANTSAAQTLLQ [PRE9]  2.92 ± 0.046
39. KGKKYQPKDLRAKKTRA [RPL35A]  2.89 ± 0.12
40. KAPLQPNSERETDHANT [IRR1]  2.88 ± 0.047
41. KDFIENVNNRFDNFLTE [BRN1]  2.88 ± 0.066
42. KEYQCSAVIIDEFKDIT [YIL149C/MLP2]  2.88 ± 0.044
43. KIKDNKEKIKNNRQLPY [RPT5]  2.86 ± 0.1
44. KDIKANLSSNVNFTEIG [YCS4]  2.77 ± 0.039
45. KFTIEPGVLPVGIDTHT [SNF2]  2.73 ± 0.068
46. KDLVKNNVSFNAKDIQI [FAS1]  2.71 ± 0.043
47. KFPATNVTTILDEIFSG [ECM29]  2.7 ± 0.063
48. KDAISFIKEIHKSIELI [YCS4]  2.69 ± 0.037
49. KASKEIKKVICGAWEPA [SIR3]  2.67 ± 0.11
50. KFFTQSNLEKLPKYKEK [MED7]  2.62 ± 0.04
51. KCLVEKSICFENCLNND [SWI1]  2.61 ± 0.078
52. IYATFLNESDCLEACSF [YDL116W/NUP84]  2.59 ± 0.057
53. KDLKEILSGFHNAGPVA [RPP1B]  2.58 ± 0.066
54. KDGEDIIFNYVPGPGTK [CSL4]  2.52 ± 0.29
55. KDAQKKDIEKLTNEISD [YIL149C/MLP2]  2.49 ± 0.078
56. KERIIRAFLIEEQKIVK [RPL34A]  2.49 ± 0.066
57. KGQGPFTLTYDIIETFS [YMR129W/POM152]  2.48 ± 0.044
58. KDIRSTLASLIRYNSVE [RPC82]  2.45 ± 0.11
59. KDFVTMAIEIINDIRDD [YCG1]  2.42 ± 0.19
60. KHWQERVKVHFDQAGKK [RPL13A]  2.35 ± 0.036
61. KAELEKQKSWVPSYIHV [YIL149C/MLP2]  2.31 ± 0.035
62. KGPIIISKNPSNGIFYG [SIR2]  2.3 ± 0.053
63. KISLLRPSFQNNRISNA [SWP82]  2.27 ± 0.041
64. KILSILNRSHFATTKAE [ECM29]  2.19 ± 0.037
65. KELQQLQKQILTVENKL [SMC1]  2.18 ± 0.09
66. KHLEDNTLLISGPFKVN [RPL6A]  2.14 ± 0.048
67. KFILQILQILNLMILNT [YML103C/NUP188]  2.09 ± 0.03
68. KEELLRDGVLTVTLNKN [RRP45]  2.06 ± 0.048
69. KDRLYCGKCHSVYKVNA [RPS31]  2.01 ± 0.052
70. KHHQLFYMLNAGIRPKF [RPN1]  1.98 ± 0.1
71. KDPVDFVRQAAMIALSM [RPN2]  1.97 ± 0.13
72. KCQELVTNIRRIIQDNI [RRP46]  1.94 ± 0.11
73. KFQLQNQLEDFILELEH [YIL149C/MLP2]  1.91 ± 0.086
74. KHGAVHMSTYLKIYKVG [RPL21B]  1.74 ± 0.054
75. KENELLFGEKSILGKFC [YCS4]  1.73 ± 0.039
76. KIRRHPNIMLIFGSGFG [FAS1]  1.39 ± 0.054
77. KGALMYGPPGTGKTLLA [RPT5]  1.35 ± 0.11
78. KDHLLGRLASTIAKQVL [RPL16B]  1.3 ± 0.066
